Measurements taken from article PMC2199961.
Where “and” joins values, the source holds several entries; their conditions need not be identical. Identical values can stand only once.

Target: aortic smooth muscle actin (alpha-smooth muscle actin) (bovine) (UniProt P62739)
Experiment: co-sedimentation

Substance: aortic smooth muscle actin (alpha-smooth muscle actin) (from UniProt P62739 3-377) (natural protein)
- percent of actin in the pellet (actin alone): 10% and 20%
- percent of actin in the pellet (with anti-aSM-1 at 1:16 antibody/actin): > 60%
